{
  "source": "paper PMC5622162",
  "about": "“PLPP/CIN Regulates Seizure Activity by the Differential Modulation of Calsenilin Binding to GluN1 and Kv4.2 in Mice” (Frontiers in Molecular Neuroscience, 2017)",
  "binders": {"B1": {"name": "recombinant human pyridoxal-5'-phosphate phosphatase/chronophin (PLPP/CIN) (enzyme, UniProt Q96GD0 1-296, looked up)", "chain": "MARCERLRGAALRDVLGRAQGVLFDCDGVLWNGERAVPGAPELLERLARAGKAALFVSNNSRRARPELALRFARLGFGGLRAEQLFSSALCAARLLRQRLPGPPDAPGAVFVLGGEGLRAELRAAGLRLAGDPSAGDGAAPRVRAVLVGYDEHFSFAKLREACAHLRDPECLLVATDRDPWHPLSDGSRTPGTGSLAAAVETASGRQALVVGKPSPYMFECITENFSIDPARTLMVGDRLETDILFGHRCGMTTVLTLTGVSRLEEAQAYLAAGQHDLVPHYYVESIADLTEGLED", "notes": "pyridoxal-5'-phosphate phosphatase/chronophin (PLPP/CIN), human, recombinant protein from Abcam; the words 'full-length recombinant human' stand before CSEN and are read as holding for PLPP/CIN too; source: bought: Abcam (recombinant)"}},
  "target": "T1, calsenilin (CSEN), endogenous in mouse hippocampus or brain (mouse (endogenous in hippocampus), UniProt Q9QXT8 1-256)",
  "T1 construct": "calsenilin (CSEN, DREAM, KChIP3), endogenous mouse protein; a mixture of phosphorylated and dephosphorylated forms in the lysate; The state of phosphorylation differs with genotype and treatment; also called pCSEN; DREAM; source: endogenous, mouse hippocampus lysate (RIPA); crude extracts of PLPP/CIN-/- mouse brain",
  "T1 sequence (looked up)": "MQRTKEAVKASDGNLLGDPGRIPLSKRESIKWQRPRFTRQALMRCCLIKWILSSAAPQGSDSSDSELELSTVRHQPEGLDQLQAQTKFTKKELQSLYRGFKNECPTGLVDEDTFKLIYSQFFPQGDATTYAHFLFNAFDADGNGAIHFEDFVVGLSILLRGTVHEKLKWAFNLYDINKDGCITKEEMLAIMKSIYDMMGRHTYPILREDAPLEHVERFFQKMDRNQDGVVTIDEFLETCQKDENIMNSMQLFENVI",
  "assay": "co-IP; in vitro: recombinant PLPP/CIN (10 ng/ul) added to crude extracts of PLPP/CIN^-/- mouse brain at 30°C for 1 h; co-precipitation with endogenous CSEN and western blot",
  "conditions": "one partner purified",
  "data": [
    {"binder": "B1", "values": [
      {"measurement": "binding of CSEN with CK1 left in the presence of PLPP/CIN, fold of vehicle", "result": "0.68 fold of vehicle level"}
    ]}
  ]
}
